Among the data in patent US5574136, “DNA encoding granulocyte colony-stimulating factor receptor and protein thereof” (Osaka Bioscience Institute, dated 1996) are binding result and Kd values, retold here.

One assay deals with T1, mouse recombinant IL-6 (mouse, UniProt P08505).
T1 sequence: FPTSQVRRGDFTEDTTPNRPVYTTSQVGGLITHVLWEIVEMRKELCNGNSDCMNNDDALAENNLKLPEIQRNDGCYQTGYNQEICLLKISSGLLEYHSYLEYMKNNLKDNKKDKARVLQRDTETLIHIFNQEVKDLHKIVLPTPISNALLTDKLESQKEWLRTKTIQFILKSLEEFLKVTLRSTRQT
The experiment in a line: competition for binding of 125I-mouse G-CSF to COS cells transfected with pJ17.

Assay [1] deals with mouse recombinant LIF (leukemia inhibitory factor) (mouse, UniProt P09056). Described as above.
The target of the next assay is T2, rat prolactin (rat, UniProt P01237).
T2 sequence: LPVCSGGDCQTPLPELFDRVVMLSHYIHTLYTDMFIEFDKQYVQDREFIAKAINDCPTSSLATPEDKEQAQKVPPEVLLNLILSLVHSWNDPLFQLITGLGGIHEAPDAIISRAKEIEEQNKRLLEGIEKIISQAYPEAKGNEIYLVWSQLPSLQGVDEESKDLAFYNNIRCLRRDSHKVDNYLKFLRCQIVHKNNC
The assay is described as above.

Another assay deals with T3, human recombinant M-CSF (human, UniProt P09603).
T3 sequence: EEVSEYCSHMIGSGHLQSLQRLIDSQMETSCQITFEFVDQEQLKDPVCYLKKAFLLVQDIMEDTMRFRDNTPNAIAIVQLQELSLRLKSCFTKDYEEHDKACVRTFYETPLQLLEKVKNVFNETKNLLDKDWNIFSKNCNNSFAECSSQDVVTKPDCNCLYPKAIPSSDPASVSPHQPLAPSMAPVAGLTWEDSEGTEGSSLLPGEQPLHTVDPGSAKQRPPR
Described as above.

The target in a further assay is mouse recombinant GM-CSF (mouse, UniProt P01587). The assay is described as above.
In a further assay the target is mouse recombinant IL-3 (mouse, UniProt P01586). The description is as above.
Assay [2] has as its target T4, mouse recombinant G-CSF (granulocyte colony-stimulating factor) (mouse, UniProt P09920, radioiodinated (125I, IODO-GEN method) where used as the labelled ligand; unlabelled where used as competitor). The experiment in a line: saturation binding of 125I-G-CSF to COS cells transfected with pJ17, Scatchard plot. The method, then: The binding of ^125I-G-CSF to COS or NFS-60 cells was examined. COS cells grown on 15 cm plates were transfected with 20 µg of the pI62 or pJ17 plasmid. Cells were split into 6-well microtiter plates at 12 hr after the glycerol shock, and grown for 60 hr in DMEM containing 10% FCS. Cells were washed with binding medium, and incubated at 4° C. for 4 hr with ^125I-G-CSF (10 pM to 1.2 nM range). To determine the non-specific binding of ^125I-G-CSF to cells, a large excess of unlabeled G-CSF (800 nM) was incubated in the assay mixture, and the radioactivity bound to the cells was subtracted from the total binding to yield the specific binding.
For binding of G-CSF to NFS-60 cells, 5.2 ×10^6 cells were incubated at 4° C. for 4 hr with various concentrations of ^125I-G-CSF in 0.3 ml of RPMI-1640 medium containing 10% FCS and 20 mM HEPES (pH 7.3). As mentioned above, 1 ×10^6 COS cells transfected with the plasmid pJ17 were incubated with various amounts of ^125I-G-CSF with or without an excess of unlabeled G-CSF. In the FIG. 3A, the specific binding (●) is shown as the difference between total (○) and non-specific binding (Δ). FIG. 3B is the scatchard plot of G-CSF binding data in COS cells, and FIG. 3C is the saturated binding of ^125I-G-CSF to NFS-60 cells, showing total (○), non-specific (Δ) and specific (●) binding to cells. […]

Assay [3] concerns the target T4, mouse recombinant G-CSF (granulocyte …). The experiment in a line: saturation binding of 125I-G-CSF to NFS-60 cells, Scatchard plot. The method, then:
For binding of G-CSF to NFS-60 cells, 5.2 ×10^6 cells were incubated at 4° C. for 4 hr with various concentrations of ^125I-G-CSF in 0.3 ml of RPMI-1640 medium containing 10% FCS and 20 mM HEPES (pH 7.3). As mentioned above, 1 ×10^6 COS cells transfected with the plasmid pJ17 were incubated with various amounts of ^125I-G-CSF with or without an excess of unlabeled G-CSF. In the FIG. 3A, the specific binding (●) is shown as the difference between total (○) and non-specific binding (Δ). FIG. 3B is the scatchard plot of G-CSF binding data in COS cells, and FIG. 3C is the saturated binding of ^125I-G-CSF to NFS-60 cells, showing total (○), non-specific (Δ) and specific (●) binding to cells. The specific binding is the difference between the total and non-specific binding. FIG. 3D is the scatchard plot of G-CSF binding data on NFS-60 cells. […] If the transfection efficiency of COS cells was assumed to be 10 to 20% (Sympayrac and Danna, Proc. Natl. Acad. Sci. USA, 78, 7575–7578 (1981)), the positively transfected COS cells probably expressed the recombinant G-CSF receptor at 1.5-3.0 ×10^5 molecules per cell.

Assay [4] shares this target. The experiment in a line: saturation binding of murine 125I-G-CSF to COS cells transfected with pHQ3, Scatchard plot.

B1: recombinant murine G-CSF receptor expressed on COS cells (plasmids pI62, pJ17) (receptor)
chain: CGHIEISPPVVRLGDPVLASCTISPNCSKLDQQAKILWRLQDEPIQPGDRQHHLPDGTQESLITLPHLNYTQAFLFCLVPWEDSVQLLDQAELHAGYPPASPSNLSCLMHLTTNSLVCQWEPGPETHLPTSFILKSFRSRADCQYQGDTIPDCVAKKRQNNCSIPRKNLLLYQYMAIWVQAENMLGSSESPKLCLDPMDVVKLEPPMLQALDIGPDVVSHQPGCLWLSWKPWKPSEYMEQECELRYQPQLKGANWTLVFHLPSSKDQFELCGLHQAPVYTLQMRCIRSSLPGFWSPWSPGLQLRPTMKAPTIRLDTWCQKKQLDPGTVSVQLFWKPTPLQEDSGQIQGYLLSWNSPDHQGQDIHLCNTTQLSCIFLLPSEAQNVTLVAYNKAGTSSPTTVVFLENEGPAVTGLHAMAQDLNTIWVDWEAPSLLPQGYLIEWEMSSPSYNNSYKSWMIEPNGNITGILLKDNINPFQLYRITVAPLYPGIVGPPVNVYTFAGERAPPHAPALHLKHVGTTWAQLEWVPEAPRLGMIPLTHYTIFWADAGDHSFSVTLNISLHDFVLKHLEPASLYHVYLMATSRAGSTNSTGLTLRTLDPSDLNIFLGILCLVLLSTTCVVTWLCCKRRGKTSFWSDVPDPAHSSLSSWLPTIMTEETFQLPSFWDSSVPSITKITELEEDKKPTHWDSESSGNGSLPALVQAYVLQGDPREISNQSQPPSRTGDQVLYGQVLESPTSPGVMQYIRSDSTQPLLGGPTPSPKSYENIWFHSRPQETFVPQPPNQEDDCVFGPPFDFPLFQGLQVHGVEEQGGF
As a reminder, the Kd is the concentration at which binding is half-saturated. On to B1, for which the binding result (with mouse recombinant IL-6; in assay [1]; in the assay with rat prolactin; with human recombinant M-CSF; with mouse recombinant GM-CSF; in the assay with mouse recombinant IL-3) was “no binding” throughout. The equilibrium dissociation constant (Kd) in [2] was found to be 0.29 nM.

B2: native murine G-CSF receptor on NFS-60 cells (receptor)
chain: B1 chain
For B2, the equilibrium dissociation constant (Kd) in [3] was 0.18 nM.

B3: human G-CSF receptor, class 1 (plasmid pHQ3), expressed on COS cells (receptor)
chain: EECGHISVSAPIVHLGDPITASCIIKQNCSHLDPEPQILWRLGAELQPGGRQQRLSDGTQESIITLPHLNHTQAFLSCCLNWGNSLQILDQVELRAGYPPAIPHNLSCLMNLTTSSLICQWEPGPETHLPTSFTLKSFKSRGNCQTQGDSILDCVPKDGQSHCCIPRKHLLLYQNMGIWVQAENALGTSMSPQLCLDPMDVVKLEPPMLRTMDPSPEAAPPQAGCLQLCWEPWQPGLHINQKCELRHKPQRGEASWALVGPLPLEALQYELCGLLPATAYTLQIRCIRWPLPGHWSDWSPSLELRTTERAPTVRLDTWWRQRQLDPRTVQLFWKPVPLEEDSGRIQGYVVSWRPSGQAGAILPLCNTTELSCTFHLPSEAQEVALVAYNSAGTSRPTPVVFSESRGPALTRLHAMARDPHSLWVGWEPPNPWPQGYVIEWGLGPPSASNSNKTWRMEQNGRATGFLLKENIRPFQLYEIIVTPLYQDTMGPSQHVYAYSQEMAPSHAPELHLKHIGKTWAQLEWVPEPPELGKSPLTHYTIFWTNAQNQSFSAILNASSRGFVLHGLEPASLYHIHLMAASQAGATNSTVLTLMTLTPEGSELHIILGLFGLLLLLTCLCGTAWLCCSPNRKNPLWPSVPDPAHSSLGSWVPTIMEEDAFQLPGLGTPPITKLTVLEEDEKKPVPWESHNSSETCGLPTLVQTYVLQGDPRAVSTQPQSQSGTSDQVLYGQLLGSPTSPGPGHYLRCDSTQPLLAGLTPSPKSYENLWFQASPLGTLVTPAPSQEDDCVFGPLLNFPLLQGIRVHGMEALGSF
Consider B3, for which, in assay [4], the Kd was 0.55 nM.
